Measurements as given in patent publication US20250340662A1.

T1: Human v6-peptide (human)
T1 sequence (peptide, N-terminal biotin): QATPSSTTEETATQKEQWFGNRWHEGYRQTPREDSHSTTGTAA


Tests used:
Human v6-peptide (human) = target: T1, Human v6-peptide (human); test: SPR SCK, antibody immobilised, peptide injected
[1] = target: Cynomolgus v6-peptide (cynomolgus); test: SPR SCK, antibody immobilised, peptide injected
[2] = target: Human CD44v6 iso4-Fc (human) (UniProt P16070); test: SPR SCK, antibody immobilised, CD44v6-Fc injected; apparent KD
Sequence of Human CD44v6 iso4-Fc (human) (P16070 other isoform, or with tags, fused parts or gaps limits assumed): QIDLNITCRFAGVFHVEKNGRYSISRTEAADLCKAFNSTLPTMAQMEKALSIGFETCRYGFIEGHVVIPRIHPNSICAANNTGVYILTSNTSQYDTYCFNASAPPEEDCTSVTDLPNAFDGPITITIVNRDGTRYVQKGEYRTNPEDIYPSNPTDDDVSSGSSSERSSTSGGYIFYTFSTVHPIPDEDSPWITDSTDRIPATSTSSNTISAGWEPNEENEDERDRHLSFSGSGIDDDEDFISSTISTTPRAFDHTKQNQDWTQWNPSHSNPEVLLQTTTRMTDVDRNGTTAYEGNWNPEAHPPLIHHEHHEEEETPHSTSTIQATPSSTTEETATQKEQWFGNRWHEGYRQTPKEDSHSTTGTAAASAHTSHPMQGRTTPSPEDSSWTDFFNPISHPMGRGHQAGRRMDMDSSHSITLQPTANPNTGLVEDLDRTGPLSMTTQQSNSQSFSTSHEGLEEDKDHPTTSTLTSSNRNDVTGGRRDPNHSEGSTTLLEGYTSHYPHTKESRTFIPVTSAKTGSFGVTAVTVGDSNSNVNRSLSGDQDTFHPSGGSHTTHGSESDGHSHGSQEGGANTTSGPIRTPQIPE

[3] = target: Human CD44v6 iso4-Fc (human) (UniProt P16070); test: SPR SCK, antibody immobilised, CD44v6-Fc injected
[4] = target: CD44v6 on cultured cancer cells (BHT-101, ACT-1, A431) (human) (UniProt P16070); test: LigandTracer, 125I-IgG4 on BHT-101 cells
[5] = target: CD44v6 on cultured cancer cells (BHT-101, ACT-1, A431) (human) (UniProt P16070); test: live BHT-101 cells; apparent KD
[6] = target: CD44v6 on cultured cancer cells (BHT-101, ACT-1, A431) (human) (UniProt P16070); test: LigandTracer, 177Lu-antibody on A431 cells

Sequence of Cynomolgus v6-peptide (cynomolgus) (peptide, as listed by the source): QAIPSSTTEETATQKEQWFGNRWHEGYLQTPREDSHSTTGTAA

Binder	Kd (Human v6-peptide (human)) [nM]	koff (Human v6-peptide (human)) [s⁻¹]	kon (Human v6-peptide (human)) [M⁻¹ s⁻¹]	Kd [1] [nM]	koff [1] [s⁻¹]	kon [1] [M⁻¹ s⁻¹]	Kd [2] [nM]	koff [3] [s⁻¹]	kon [3] [M⁻¹ s⁻¹]	Kd [4] [nM]	Kd [5] [nM]	Kd [6] [nM]
BIWA4 IgG1 LALA IAHA (antibody, from another filing, V domains shown) VH: EVQLVESGGGLVKPGGSLRLSCAASGFTFSSYDMSWVRQAPGKGLEWVSTISSGGSYTYYLDSIKGRFTISRDNAKNSLYLQMNSLRAEDTAVYYCARQGLDYWGRGTLVTVSS VL: EIVLTQSPATLSLSPGERATLSCSASSSINYIYWYQQKPGQAPRLLIYLTSNLASGVPARFSGSGSGTDFTLTISSLEPEDFAVYYCLQWSSNPLTFGGGTKVEIKR	73	0.0027	36000	44	0.0036	83000	14	0.00033	24000			
AL-MN114-465 hIgG4 (antibody, V domains shown) VH: EVQLLESGGGLVQPGGSLRLSCAASGFSFGSYAMSWVRQAPGKGLEWVSAISAGGSSTFYADSVKGRFTISRDNSKNTLYLQMNSLRAEDTAVYYCARHYYSDSDYRSSAAMDYWGQGTLVTVSS VL: DIQMTQSPSSLSASVGDRVTITCRASQSISSYLNWYQQKPGKAPKLLIYTASSLQSGVPSRFSGSGSGTDFTLTISSLQPEDFATYYCQQDLYLLTFGQGTKLEIK										0.03	< 0.2	0.03
